Laboratory results: patent US20230143604A1, “QW DOSING OF GIP RECEPTOR AGONIST PEPTIDE COMPOUNDS AND USES THEREOF” (TAKEDA PHARMACEUTICAL COMPANY LIMITED, priority 2020, published 2023)
Starred links: 1 amine or outer side, 2 acyl side, 3 side chain; linkers in the order of their positions; H or OH if unused. Non-standard residues stand in square brackets, D forms with d. Groups on a side chain read outwards from the residue. No end group written: not given here. *: point of attachment. C18 diacid = O=C(O)CCCCCCCCCCCCCCCCC(=O)*; C17 diacid = O=C(O)CCCCCCCCCCCCCCCC(=O)*; γGlu = O=C(O)[C@H](CCC(=O)[*:2])N[*:1]; NMeY = CN[C@@H](Cc1ccc(O)cc1)C(=O)O; AEEA = NCCOCCOCC(=O)O; Aib = CC(C)(N)C(=O)O

Key:
[1] = target: T1, full-length human GIPR with an N-terminal FLAG tag (human, UniProt P48546 22-466); experiment: cell-based or functional assay
T1 sequence (looked up): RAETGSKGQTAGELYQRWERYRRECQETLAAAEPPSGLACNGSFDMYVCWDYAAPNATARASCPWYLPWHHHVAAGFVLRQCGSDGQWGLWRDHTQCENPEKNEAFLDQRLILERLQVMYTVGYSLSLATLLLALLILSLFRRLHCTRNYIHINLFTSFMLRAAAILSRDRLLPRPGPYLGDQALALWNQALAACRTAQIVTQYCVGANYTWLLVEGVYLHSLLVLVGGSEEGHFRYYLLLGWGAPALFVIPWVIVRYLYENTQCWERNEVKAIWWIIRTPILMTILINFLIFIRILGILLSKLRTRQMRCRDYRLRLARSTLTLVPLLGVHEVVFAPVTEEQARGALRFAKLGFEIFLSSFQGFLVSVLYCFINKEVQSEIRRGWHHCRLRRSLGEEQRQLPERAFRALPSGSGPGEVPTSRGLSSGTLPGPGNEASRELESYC

[2] = target: full-length human GLP-1R with an N-terminal FLAG tag (human, UniProt P43220 24-463); experiment: cell-based or functional assay

H-Y[Aib]EGTFISDYSIALDKIAQQK([AEEA-AEEA-γGlu-γGlu-C17 diacid])FVEWLLAQRPSSGAPPPS-OH [Compound No. 134]
Human GIPR cAMP EC50, HEK293T [1]: 0.6 pM
Human GLP1R cAMP EC50, HEK293T [2]: 170 nM

YXEGTFISDYSIAXDRXAQXNFVNWLLAQSPSSGAPPPS (N-terminus H; Aib at 2,17,20; Lys(G5-C18 diacid) at 14; C-terminal OH) [Compound No. 138]
Human GIPR cAMP EC50, HEK293T [1]: 0.8 pM
Human GLP1R cAMP EC50, HEK293T [2]: 2.04 nM

B1: Compound No. 131 (peptide)
peptide: H-Y[Aib]EGTFISDYSIALDK[Aib]AQAK([AEEA-AEEA-γGlu-γGlu-C17 diacid])FVEWLLAQRG-OH
SMILES: CC[C@H](C)[C@H](NC(=O)[C@H](CO)NC(=O)[C@H](Cc1ccc(O)cc1)NC(=O)[C@H](CC(=O)O)NC(=O)[C@H](CO)NC(=O)[C@@H](NC(=O)[C@H](Cc1ccccc1)NC(=O)[C@@H](NC(=O)CNC(=O)[C@H](CCC(=O)O)NC(=O)C(C)(C)NC(=O)[C@@H](N)Cc1ccc(O)cc1)[C@@H](C)O)[C@@H](C)CC)C(=O)N[C@@H](C)C(=O)N[C@@H](CC(C)C)C(=O)N[C@@H](CC(=O)O)C(=O)N[C@@H](CCCCN)C(=O)NC(C)(C)C(=O)N[C@@H](C)C(=O)N[C@@H](CCC(N)=O)C(=O)N[C@@H](C)C(=O)N[C@@H](CCCCNC(=O)COCCOCCNC(=O)COCCOCCNC(=O)CC[C@H](NC(=O)CC[C@H](NC(=O)CCCCCCCCCCCCCCCC(=O)O)C(=O)O)C(=O)O)C(=O)N[C@@H](Cc1ccccc1)C(=O)N[C@H](C(=O)N[C@@H](CCC(=O)O)C(=O)N[C@@H](Cc1c[nH]c2ccccc12)C(=O)N[C@@H](CC(C)C)C(=O)N[C@@H](CC(C)C)C(=O)N[C@@H](C)C(=O)N[C@@H](CCC(N)=O)C(=O)N[C@@H](CCCNC(=N)N)C(=O)NCC(=O)O)C(C)C
Human GIPR cAMP EC50, HEK293T [1]: 0.4 pM
Human GLP1R cAMP EC50, HEK293T [2]: 151 nM

YXEGTFISDYSIXXDRXAQXDFVEWLLAQRG (N-terminus H; Aib at 2,13,17,20; Lys(G5-C18 diacid) at 14; C-terminal OH) [Compound No. 139]
Human GIPR cAMP EC50, HEK293T [1]: 1.5 pM
Human GLP1R cAMP EC50, HEK293T [2]: 8.91 nM

YXEGTFISDYSIAXDRXAQXDFVEWLLAQRG (N-terminus H; Aib at 2,17,20; Lys(G5-C18 diacid) at 14; C-terminal OH) [Compound No. 144]
Human GIPR cAMP EC50, HEK293T [1]: 0.9 pM
Human GLP1R cAMP EC50, HEK293T [2]: 15.1 nM

YXEGTFISDYSIXXDRXAQRDFVEWLLAQRG (N-terminus H; Aib at 2,13,17; Lys(G5-C18 diacid) at 14; C-terminal OH) [Compound No. 147]
Human GIPR cAMP EC50, HEK293T [1]: 0.8 pM
Human GLP1R cAMP EC50, HEK293T [2]: 1.66 nM

YXEGTFISDYSIXXDRXAQADFVEWLLAQRG (N-terminus H; Aib at 2,13,17; Lys(G5-C18 diacid) at 14; C-terminal OH) [Compound No. 146]
Human GIPR cAMP EC50, HEK293T [1]: 0.8 pM
Human GLP1R cAMP EC50, HEK293T [2]: 7.08 nM

YXEGTFISDYSIXXDRAAQXDFVEWLLAQRG (N-terminus H; Aib at 2,13,20; Lys(G5-C18 diacid) at 14; C-terminal OH) [Compound No. 145]
Human GIPR cAMP EC50, HEK293T [1]: 1.8 pM
Human GLP1R cAMP EC50, HEK293T [2]: 9.33 nM

B2: Compound No. 130 (peptide)
peptide: H-Y[Aib]EGTFISDYSIALDK[Aib]AQQK([AEEA-AEEA-γGlu-γGlu-C17 diacid])FVEWLLAQRG-OH
SMILES: CC[C@H](C)[C@H](NC(=O)[C@H](CO)NC(=O)[C@H](Cc1ccc(O)cc1)NC(=O)[C@H](CC(=O)O)NC(=O)[C@H](CO)NC(=O)[C@@H](NC(=O)[C@H](Cc1ccccc1)NC(=O)[C@@H](NC(=O)CNC(=O)[C@H](CCC(=O)O)NC(=O)C(C)(C)NC(=O)[C@@H](N)Cc1ccc(O)cc1)[C@@H](C)O)[C@@H](C)CC)C(=O)N[C@@H](C)C(=O)N[C@@H](CC(C)C)C(=O)N[C@@H](CC(=O)O)C(=O)N[C@@H](CCCCN)C(=O)NC(C)(C)C(=O)N[C@@H](C)C(=O)N[C@@H](CCC(N)=O)C(=O)N[C@@H](CCC(N)=O)C(=O)N[C@@H](CCCCNC(=O)COCCOCCNC(=O)COCCOCCNC(=O)CC[C@H](NC(=O)CC[C@H](NC(=O)CCCCCCCCCCCCCCCC(=O)O)C(=O)O)C(=O)O)C(=O)N[C@@H](Cc1ccccc1)C(=O)N[C@H](C(=O)N[C@@H](CCC(=O)O)C(=O)N[C@@H](Cc1c[nH]c2ccccc12)C(=O)N[C@@H](CC(C)C)C(=O)N[C@@H](CC(C)C)C(=O)N[C@@H](C)C(=O)N[C@@H](CCC(N)=O)C(=O)N[C@@H](CCCNC(=N)N)C(=O)NCC(=O)O)C(C)C
Human GIPR cAMP EC50, HEK293T [1]: 0.3 pM
Human GLP1R cAMP EC50, HEK293T [2]: 95.5 nM

H-Y[Aib]EGTFISDYSIALDKIAQ[Aib]K([AEEA-AEEA-γGlu-γGlu-C17 diacid])FVEWLLAQRG-OH [Compound No. 132]
Human GIPR cAMP EC50, HEK293T [1]: 0.9 pM
Human GLP1R cAMP EC50, HEK293T [2]: 66.1 nM

B3: Compound No. 136 (peptide)
peptide: [NMeY][Aib]EGTFISDYSIALDR[Aib]K([Gly-Gly-Pro-Ala-Pro-Ala-Pro-γGlu-C18 diacid])Q[Aib]DFVNWLLAQSPG-OH
modifications: N-terminus assumed
SMILES: CC[C@H](C)[C@H](NC(=O)[C@H](CO)NC(=O)[C@H](Cc1ccc(O)cc1)NC(=O)[C@H](CC(=O)O)NC(=O)[C@H](CO)NC(=O)[C@@H](NC(=O)[C@H](Cc1ccccc1)NC(=O)[C@@H](NC(=O)CNC(=O)[C@H](CCC(=O)O)NC(=O)C(C)(C)NC(=O)[C@H](Cc1ccc(O)cc1)NC)[C@@H](C)O)[C@@H](C)CC)C(=O)N[C@@H](C)C(=O)N[C@@H](CC(C)C)C(=O)N[C@@H](CC(=O)O)C(=O)N[C@@H](CCCNC(=N)N)C(=O)NC(C)(C)C(=O)N[C@@H](CCCCNC(=O)CNC(=O)CNC(=O)[C@@H]1CCCN1C(=O)[C@H](C)NC(=O)[C@@H]1CCCN1C(=O)[C@H](C)NC(=O)[C@@H]1CCCN1C(=O)CC[C@H](NC(=O)CCCCCCCCCCCCCCCCC(=O)O)C(=O)O)C(=O)N[C@@H](CCC(N)=O)C(=O)NC(C)(C)C(=O)N[C@@H](CC(=O)O)C(=O)N[C@@H](Cc1ccccc1)C(=O)N[C@H](C(=O)N[C@@H](CC(N)=O)C(=O)N[C@@H](Cc1c[nH]c2ccccc12)C(=O)N[C@@H](CC(C)C)C(=O)N[C@@H](CC(C)C)C(=O)N[C@@H](C)C(=O)N[C@@H](CCC(N)=O)C(=O)N[C@@H](CO)C(=O)N1CCC[C@H]1C(=O)NCC(=O)O)C(C)C
Human GIPR cAMP EC50, HEK293T [1]: 0.7 pM
Human GLP1R cAMP EC50, HEK293T [2]: 63.1 nM

Y[Aib]EGTFISDYSIALDKIAQQK([AEEA-AEEA-γGlu-γGlu-C17 diacid])FVEWLLAQRG-OH [Compound No. 142]
Human GIPR cAMP EC50, HEK293T [1]: 0.4 pM
Human GLP1R cAMP EC50, HEK293T [2]: 158 nM

Y[Aib]EGTFISDYSI[Aib]LDR[Aib]AQ[Aib]K([AEEA-AEEA-γGlu-γGlu-C18 diacid])FVNWLLAQRG-OH (not fully specified (N-terminus)) [Compound No. 141]
Human GIPR cAMP EC50, HEK293T [1]: 0.5 pM
Human GLP1R cAMP EC50, HEK293T [2]: 5.25 nM

[NMeY][Aib]EGTFISDYSIAK([γGlu-γGlu-γGlu-C17 diacid])DR[Aib]AQ[Aib]NFVNWLLAQSPSSGAPPPS-NH2 [Compound No. 12]
Human GIPR cAMP EC50, HEK293T [1]: 0.2 pM
Human GLP1R cAMP EC50, HEK293T [2]: 955 nM

H-Y[Aib]EGTFISDYSIALDKIAQRK([AEEA-AEEA-γGlu-γGlu-C17 diacid])FVEWLLAQRPSSGAPPPS-OH [Compound No. 135]
Human GIPR cAMP EC50, HEK293T [1]: 0.7 pM
Human GLP1R cAMP EC50, HEK293T [2]: 8.32 nM

Y[Aib]EGTFISDYSIALDKIAQRK([AEEA-AEEA-γGlu-γGlu-C17 diacid])FVEWLLAQRG-OH [Compound No. 143]
Human GIPR cAMP EC50, HEK293T [1]: 0.4 pM
Human GLP1R cAMP EC50, HEK293T [2]: 4.9 nM

H-Y[Aib]EGTFISDYSIALDKAAQ[Aib]K([AEEA-AEEA-γGlu-γGlu-C17 diacid])FVEWLLAQRG-OH [Compound No. 133]
Human GIPR cAMP EC50, HEK293T [1]: 1.2 pM
Human GLP1R cAMP EC50, HEK293T [2]: 58.9 nM

B4: Compound No. 140 (peptide)
peptide: H-Y[Aib]EGTFISDYSIALDR[Aib]AQ[Aib]K([AEEA-AEEA-γGlu-γGlu-C17 diacid])FVNWLLAQRG-OH
SMILES: CC[C@H](C)[C@H](NC(=O)[C@H](CO)NC(=O)[C@H](Cc1ccc(O)cc1)NC(=O)[C@H](CC(=O)O)NC(=O)[C@H](CO)NC(=O)[C@@H](NC(=O)[C@H](Cc1ccccc1)NC(=O)[C@@H](NC(=O)CNC(=O)[C@H](CCC(=O)O)NC(=O)C(C)(C)NC(=O)[C@@H](N)Cc1ccc(O)cc1)[C@@H](C)O)[C@@H](C)CC)C(=O)N[C@@H](C)C(=O)N[C@@H](CC(C)C)C(=O)N[C@@H](CC(=O)O)C(=O)N[C@@H](CCCNC(=N)N)C(=O)NC(C)(C)C(=O)N[C@@H](C)C(=O)N[C@@H](CCC(N)=O)C(=O)NC(C)(C)C(=O)N[C@@H](CCCCNC(=O)COCCOCCNC(=O)COCCOCCNC(=O)CC[C@H](NC(=O)CC[C@H](NC(=O)CCCCCCCCCCCCCCCC(=O)O)C(=O)O)C(=O)O)C(=O)N[C@@H](Cc1ccccc1)C(=O)N[C@H](C(=O)N[C@@H](CC(N)=O)C(=O)N[C@@H](Cc1c[nH]c2ccccc12)C(=O)N[C@@H](CC(C)C)C(=O)N[C@@H](CC(C)C)C(=O)N[C@@H](C)C(=O)N[C@@H](CCC(N)=O)C(=O)N[C@@H](CCCNC(=N)N)C(=O)NCC(=O)O)C(C)C
Human GIPR cAMP EC50, HEK293T [1]: 0.7 pM
Human GLP1R cAMP EC50, HEK293T [2]: 3.98 nM
